T1: nSR100 (Mus musculus, UniProt Q8BKA3)
T1 construct: host or cells: mouse N2A cells
T1 sequence (Q8BKA3 1-608): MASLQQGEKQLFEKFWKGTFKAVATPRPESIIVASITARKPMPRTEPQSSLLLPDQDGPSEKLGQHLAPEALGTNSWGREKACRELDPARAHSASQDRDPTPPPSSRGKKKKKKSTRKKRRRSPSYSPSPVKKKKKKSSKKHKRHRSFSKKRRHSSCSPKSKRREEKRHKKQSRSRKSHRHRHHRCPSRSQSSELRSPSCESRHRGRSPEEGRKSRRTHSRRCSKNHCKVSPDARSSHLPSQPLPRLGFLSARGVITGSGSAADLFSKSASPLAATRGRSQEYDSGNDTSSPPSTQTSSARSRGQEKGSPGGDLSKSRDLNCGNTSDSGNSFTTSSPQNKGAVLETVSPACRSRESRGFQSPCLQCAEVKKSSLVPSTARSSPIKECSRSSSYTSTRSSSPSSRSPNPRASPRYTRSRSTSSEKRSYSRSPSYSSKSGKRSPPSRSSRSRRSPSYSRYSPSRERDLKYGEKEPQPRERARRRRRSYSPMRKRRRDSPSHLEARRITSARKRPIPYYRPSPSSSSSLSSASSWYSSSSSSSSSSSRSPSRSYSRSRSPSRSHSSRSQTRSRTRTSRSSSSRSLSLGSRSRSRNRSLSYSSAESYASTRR


Molecular target: T1, nSR100
Assay: AP-MS nSR100 interaction partners from mouse N2A cells (Table 5)
Format: binding
Details: for AvgP (average of the SAINT scores) / MaxP (maximal SAINT score): bait Srrm4; for FoldChange between the prey Avg spectra of the bait and control purifications: bait Srrm4, 0.1 added to prevent division by 0; for AvgSpec (average number of spectra per replicate): bait Srrm4, 2 replicates; for Spectra (number of spectra for the prey in the purification of the bait): AP-MS; for SpecSum: bait Srrm4, sum of spectra over 2 replicates
[1] = bait Srrm4, biological replicate 1 (first number of the cell)
[2] = bait Srrm4, biological replicate 2 (second number of the cell)

Excerpt: By applying affinity purification coupled to mass-spectrometry (AP-MS), several interaction nSR100 partner proteins were detected that provide insight into mechanisms of post-translational regulation of nSR100 levels.

| Molecule | AvgP (average of the SAINT scores) | MaxP (maximal SAINT score) | FoldChange between the prey Avg spectra of the bait and control purifications | AvgSpec (average number of spectra per replicate) | Spectra (number of spectra for the prey in the purification of the bait) [1] | Spectra (number of spectra for the prey in the purification of the bait) [2] | SpecSum |
| --- | --- | --- | --- | --- | --- | --- | --- |
| Sap18 (protein, UniProt O55128 2-153, looked up) Histone deacetylase complex …: AVESRVTQEEIKKEPEKPIDREKTCPLLLRVFTTNNGRHHRMDEFSRGNVPSSELQIYTWMDATLKELTSLVKEVYPEARKKGTHFNFAIVFMDLKRPGYRVKEIGSTMSGRKGTDDSMTLQSQKFQIGDYLDIAITPPNRAPPSSGRMRPY | 1 | 1 | 225 | 22.5 | 17 | 28 | 45 |
| Snip1 (protein, UniProt Q8BIZ6 1-383, looked up) Smad nuclear-interacting …: MKAGKSERERSGRRRHRSGDALTTVVVKQERLSPEPVAHRRPDAPAASLSPPAAEPGHSGHRGSRARSPAKKKSKSSGRRSKSPRTKRSQSPHYPMVKVKQEREDHPRRGREDRQHREPSEQEHRRARNSERDRHRGHSRQGRSSDERPVSGQDRDRDSQNLQAQEEERDFHNARRREHRQQNESAGSEAQEVIPRPAGNRSKEVPVKEKPSFELSGALLEDTNTFRGVVIKYSEPPEARIPKKRWRLYPFKNDEVLPVMYIHRQSAYLLGRHRRIADIPIDHPSCSKQHAVFQYRLVEYTRADGTVGRRVKPYIIDLGSGNGTFLNNKRIEPQRYYELKEKDVLKFGFSSREYVLLHESSDTSELDRKEDEDDEEEEMVSDS | 1 | 1 | 70 | 7 | 5 | 9 | 14 |
| Cdc5l (protein, UniProt Q6A068 1-802, looked up) Cell division cycle 5-like …: MPRIMIKGGVWRNTEDEILKAAVMKYGKNQWSRIASLLHRKSAKQCKARWYEWLDPSIKKTEWSREEEEKLLHLAKLMPTQWRTIAPIIGRTAAQCLEHYEFLLDKTAQRDNEEETTDDPRKLKPGEIDPNPETKPARPDPIDMDEDELEMLSEARARLANTQGKKAKRKAREKQLEEARRLAALQKRRELRAAGIEIQKKRKKKRGVDYNAEIPFEKKPALGFYDTSEENYQALDADFRKLRQQDLDGELRSEKEGRDRKKDKQHLKRKKESDLPSAILQTSGVSEFTKKRSKLVLPAPQISDAELQEVVKVGQASEVARQTAEESGITNSASSTLLSEYNVTNNSIALRTPRTPASQDRILQEAQNLMALTNVDTPLKGGLNTPLHESDFSGVTPQRQVVQTPNTVLSTPFRTPSNGAEGLTPRSGTTPKPVTNATPGRTPLRDKLNINPEDGMADYSDPSYVKQMERESREHLRLGLLGLPAPKNDFEIVLPENAEKELEEREIDDTYIEDAADVDARKQAIRDAERVKEMKRMHKAVQKDLPRPSEVNETILRPLNVEPPLTDLQKSEELIKKEMITMLHYDLLHHPYEPSGNKKGKNVGFATNNSEHITYLEHSPYEKFSKEDLKKAQDALVQEMEVVKQGMSHGELSSEAYNQVWEECYSQVLYLPAQSRYTRANLASKKDRIESLEKRLEINRGHMTTEAKRAAKMEKKMKILLGGYQSRAMGLMKQLNDLWDQIEQAHLELRTFEELKKHEDSAIPRRLECLKEDVQRQQEREKELQQRYADLLMEKETLQAKF | 1 | 1 | 110 | 11 | 10 | 12 | 22 |
| Snrpb2 (protein, UniProt Q9CQI7 1-225, looked up) U2 small nuclear …: MDIRPNHTIYINNMNDKIKKEELKRSLYALFSQFGHVVDIVALKTMKMRGQAFVIFKELGSSTNALRQLQGFPFYGKPMRIQYAKTDSDIISKMRGTFADKEKKKEKKKAKTMEQAAAAANKKPGQGTPNAANTQGTAAPNPQVPDYPPNYILFLNNLPEETNEMMLSMLFNQFPGFKEVRLVPGRHDIAFVEFENDGQAGAARDALQGFKITPSHAMKITYAKK | 1 | 1 | 55 | 5.5 | 6 | 5 | 11 |
| Luc7l3 (protein, UniProt Q5SUF2 1-432, looked up) Luc7-like protein 3: MISAAQLLDELMGRDRNLAPDEKRSNVRWDHESVCKYYLCGFCPAELFTNTRSDLGPCEKIHDENLRKQYEKSSRFMKVGYERDFLRYLQSLLAEVERRIRRGHARLALSQNQQSSGAAGPTGKNEEKIQVLTDKIDVLLQQIEELGSEGKVEEAQGMMKLVEQLKEERELLRSTTSTIESFAAQEKQMEVCEVCGAFLIVGDAQSRVDDHLMGKQHMGYAKIKATVEELKEKLRKRTEEPDRDERLKKEKQEREEREKEREREREERERKRRREEEEREKERARDRERRKRSRSRSRHSSRTSDRRCSRSRDHKRSRSRDRRRSRSRDRRRSRSHDRSERKHRSRSRDRRRSKSRDRKSYKHRSKSRDREQDRKSKEKEKKGSDDKKSSVKSSSREKQSEDTNPESKESDTKNEVNGTSEDIKSEGDTQSN | 1 | 1 | 7.33 | 55 | 45 | 65 | 110 |
| Pgam5 (protein, UniProt Q8BX10 1-288, looked up) Serine/threonine-protein …: MAFRQALQLAACGLAGGSAAVLFSAVAVGKPRGGGDADTRATEPPAWTGARAGRGVWDTNWDRREPLSLINLKKRNVESGEDELTSRLDHYKAKATRHIFLIRHSQYHVDGSLEKDRTLTPLGREQAELTGLRLASLGLKFNKIVHSSMTRAVETTDIISKHLPGVSRVSTDLLREGAPIEPDPPVSHWKPEAVQYYEDGARIEAAFRNYIHRADARQEEDSYEIFICHANVIRYIVCRALQFPPEGWLRLSLNNGSITHLVIRPNGRVALRTLGDTGFMPPDKITRS | 1 | 1 | 160 | 16 | 20 | 12 | 32 |
| Snx8 (protein, UniProt Q8CFD4 1-459, looked up) Sorting nexin-8: MTGRAMDPLPSPAVAAAAEAEADEEADPPATGPRTSQVTEWRALDPGRMQMPQGNPLLLSYTLQELLAKDTVQVELIPEKKGLFLKHVEYEVSSQRFKSSVYRRYNDFVVFHEVLLHKFPYRMVPALPPKRVLGADREFIEGRRRALKRFINLVARHPPFSEDVLLKLFLSFSGSDVQHKLKEAAQCVGDEFMNCKLAARAKDFLPADIQTQFAMSRELIRNVYNSFYKLRDRAERIASRAIDNAADLLIFGKELSALGSDTTPLPSWAALHLSTWGSLKQALKGLSVEFALLADRAAQQGKKEENDVVEKLNLFLDLLQSYKDLCERHEKGVLHKHQRALHKYGLMKRQMMSAAHGREPESVEQLESRIVEQENVIQTMELRNYFSLYCLHQETQLVHVYLPLTSHILGAFVNSQIQGHKEMSKVWNDLKPKLSCLFAGPHSVLTPPRSPQEDGVCPH | 1 | 1 | 145 | 14.5 | 11 | 18 | 29 |
| Ddx41 (protein, UniProt Q91VN6 1-622, looked up) Probable ATP-dependent RNA …: MEDSEPERKRARADEATAGGSRSEDEDEDDEDYVPYVPLRQRRQLLLQKLLQRRRKGATEEEQQDSGSEPRGDEDDIPLGPQSNVSLLDQHQHLKEKAEARKESAKEKQLKEEEKILESVAEGRALMSVKEMAKGITYDDPIKTSWTPPRYVLSMSEERHERVRKKYHILVEGDGIPPPIKSFKEMKFPAAILRGLKKKGILHPTPIQIQGIPTILSGRDMIGIAFTGSGKTLVFTLPVIMFCLEQEKRLPFSKREGPYGLIICPSRELARQTHGILEYYCRLLQEDSSPLLRCALCIGGMSVKEQMETIRHGVHMMVATPGRLMDLLQKKMVSLDICRYLALDEADRMIDMGFEGDIRTIFSYFKGQRQTLLFSATMPKKIQNFAKSALVKPVTINVGRAGAASLDVIQEVEYVKEEAKMVYLLECLQKTPPPVLIFAEKKADVDAIHEYLLLKGVEAVAIHGGKDQEERTKAIEAFREGKKDVLVATDVASKGLDFPAIQHVINYDMPEEIENYVHRIGRTGRSGNTGIATTFINKACDESVLMDLKALLLEAKQKVPPVLQVLHCGDESMLDIGGERGCAFCGGLGHRITDCPKLEAMQTKQVSNIGRKDYLAHSSMDF | 1 | 1 | 65 | 6.5 | 6 | 7 | 13 |
| Necap1 (protein, UniProt Q9CR95 1-275, looked up) Adaptin ear-binding …: MAAELEYESVLCVKPDVSVYRIPPRASNRGYRASDWKLDQPDWTGRLRITSKGKIAYIKLEDKVSGELFAQAPVEQYPGIAVETVTDSSRYFVIRIQDGTGRSAFIGIGFTDRGDAFDFNVSLQDHFKWVKQETEISKESQEMDNRPKLDLGFKEGQTIKLSIGNITAKKGGASKPRASGTGGLSLLPPPPGGKVTIPPPSSSVAISNHVTPPPIPKSNHGGNDSDILLDLDSPAPVSTSAPAPVSTSNDLWGDFSTASSSVPNQAPQPSNWVQF | 1 | 1 | 125 | 12.5 | 12 | 13 | 25 |
